Results published in patent US20230340112A1.

Columns and labels:
[1] = biological target: mDC cell surface SIRPα (human) (UniProt P78324); test: FACS binding; Donor #296; isotype control, flat curve
[2] = biological target: mDC cell surface SIRPα (human) (UniProt P78324); test: FACS binding; Donor #298; isotype control, flat curve
[3] = biological target: cell-surface SIRPα (mDC) (human) (UniProt P78324); test: FACS blocking of CD47/SIRPα; Donor #296; isotype control, flat curve
[4] = biological target: cell-surface SIRPα (mDC) (human) (UniProt P78324); test: FACS blocking of CD47/SIRPα; Donor #298; isotype control, flat curve
[5] = biological target: human SIRPα expressed on the surface of human monocyte-derived dendritic cells (human) (UniProt P78324); test: flow cytometry on human monocyte-derived dendritic cells
Sequence of human SIRPα expressed on the surface of human monocyte-derived dendritic cells (human) (P78324 31-504): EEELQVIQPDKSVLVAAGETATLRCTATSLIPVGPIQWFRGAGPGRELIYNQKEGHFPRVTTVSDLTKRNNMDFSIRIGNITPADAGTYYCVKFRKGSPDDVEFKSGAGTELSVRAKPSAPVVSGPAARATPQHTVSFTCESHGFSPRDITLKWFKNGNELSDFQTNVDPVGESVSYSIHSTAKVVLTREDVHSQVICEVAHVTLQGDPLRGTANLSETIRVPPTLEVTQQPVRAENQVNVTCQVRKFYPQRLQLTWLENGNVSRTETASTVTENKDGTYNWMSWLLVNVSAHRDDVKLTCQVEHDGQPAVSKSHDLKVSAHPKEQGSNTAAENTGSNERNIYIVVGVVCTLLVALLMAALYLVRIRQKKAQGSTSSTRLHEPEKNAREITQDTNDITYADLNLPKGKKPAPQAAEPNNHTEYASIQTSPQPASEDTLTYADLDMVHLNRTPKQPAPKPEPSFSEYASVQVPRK

Sequence of mDC cell surface SIRPα (human) (P78324 31-504): as above
Sequence of cell-surface SIRPα (mDC) (human) (P78324 31-504): as above

| EC50 [1] [nM] | EC50 [2] [nM] | IC50 [3] [nM] | IC50 [4] [nM] | Kd [5] [nM] | Substance |
| --- | --- | --- | --- | --- | --- |
| 38.6 | 0.025 | 0.424 | 0.0177 |  | IgG4 isotype |
|  |  |  |  | 0.0021 | IgG4 isotype (antibody) |
